The results in this text go back to US20090022714A1, “Combination methods of inhibiting tumor growth with a vascular endothelial growth factor receptor antagonist” (ImClone Systems, Inc., priority 2001, published 2009).

Assay [1] deals with KDR (VEGFR-2)-expressing HUVEC. Description: FACS analysis of c-p1C11 on HUVEC. The format is binding, human. The note with it: 5 μg/ml. The protocol:
Early passage HUVEC cells were grown in growth factor-depleted EBM-2 medium overnight to induce the expression of KDR (VEGFR-2). The cells were harvested and washed three times with PBS, incubated with c-p1C11 IgG (5 μg/ml) for 1 h at 4° C., followed by incubation with a FITC labeled rabbit anti-human Fc antibody (Capper, Organon Teknika Corp., West Chester, Pa.) for an additional 60 min. The cells were washed and analyzed by a flow cytometer (Model EPICS®, Coulter Corp., Edison, N.J.).

Assay [2] has as its target T1, KDR (VEGFR-2) binding to VEGF (Homo sapiens, UniProt P35968).
T1 construct: the cDNA for KDR (VEGFR-2) extracellular domain is fused in-frame with the cDNA for human placental AP; made in house; host or cells: stably transfected NIH 3T3 cells, purified from supernatant on anti-AP antibody
Description: Competitive VEGF binding assay, first assay (KDR-AP to immobilized VEGF165). The note with it: FIG. 22. The protocol: In the first assay, various amounts of antibodies were mixed with a fixed amount of KDR (VEGFR-2)-AP (50 ng) and incubated at room temperature for 1 h.

Assay [3] deals with T2, immobilized KDR (VEGFR-2) receptor (Homo sapiens, UniProt P35968).
T2 construct: the cDNA for KDR (VEGFR-2) extracellular domain is fused in-frame with the cDNA for human placental AP; human placental alkaline phosphatase (AP), inferred for these assays; made in house; host or cells: NIH 3T3 (inferred: the only KDR protein whose making is described)
Description: Competitive VEGF binding assay, second assay (radiolabeled VEGF165 to immobilized KDR). Conditions: FIG. 23.

Another assay deals with p44/p42 MAP kinases. Nature of the assay: MAP kinase phosphorylation assay in HUVEC (chimeric IgG). The assay is classed as cell-based, human. The protocol: (§1) Subconfluent HUVEC cells were grown in growth factor depleted EBM-2 medium for 24 to 48 h prior to experimentation. […] The cells were then lysed in lysis buffer ([…], 150 mM NaCl, 1% NP-40, 2 mM EDTA, 0.25% sodium deoxycholate, 1 mM PMSF, 1 μg/ml leupeptin, 1 μg/ml pepstatin, 10 μg/ml aprotinin, pH 7.5) and the cell lysate used for both the KDR (VEGFR-2) and MAP kinase phosphorylation assays. The KDR (VEGFR-2) receptor was immunoprecipitated from the cell lysates with Protein A Sepharose beads (Santa Cruz Biotechnology, Inc., CA) coupled to an anti-KDR (VEGFR-2) antibody, Mab 4.13 (ImClone Systems). Proteins were resolved with SDS-PAGE and subjected to Western blot analysis. To detect KDR (VEGFR-2) phosphorylation, blots were probed with an antiphosphotyrosine Mab, PY20 (ICN Biomedicals, Inc. Aurora, Ohio). For the MAP kinase activity assay, cell lysates were resolved with SDS-PAGE followed by Western blot analysis using a phospho-specific MAP kinase antibody (New England BioLabs, Beverly, Mass.). All signals were detected using ECL (Amersham, Arlington Heights, Ill.). In both assays, the blots were reprobed with a polyclonal anti-KDR (VEGFR-2) antibody (ImClone Systems) to assure that equal amount of protein was loaded in each lane of SDS-PAGE gels.

For a further assay, the system named is HUVEC. Nature of the assay: Anti-mitogenic assay, [3H]-TdR, HUVEC (chimeric IgG and scFv). Conditions: FIG. 24. The format is cell-based, human. As for the experimental part:
The effect of anti-KDR (VEGFR-2) antibodies on VEGF-stimulated mitogenesis of human endothelial cells was determined with a [^3H]-TdR DNA incorporation assay using HUVEC. […] After 18 hours of incubation, 0.25 μCi of [^3H]-TdR was added to each well and incubated for an additional 4 hours. DNA incorporated radioactivity was determined with a scintillation counter. The data shown in FIG. 24 are representative of at least three separate experiments.

The target of assay [4] is T3, KDR (VEGFR-2) (Homo sapiens, UniProt P35968). Description: KDR phosphorylation assay in HUVEC (chimeric IgG). The assay is classed as cell-based. Also noted: endogenous in cells; host or cells: HUVEC, early passage. As for the experimental part: as §1
Target sequence in this assay (P35968 20-1356): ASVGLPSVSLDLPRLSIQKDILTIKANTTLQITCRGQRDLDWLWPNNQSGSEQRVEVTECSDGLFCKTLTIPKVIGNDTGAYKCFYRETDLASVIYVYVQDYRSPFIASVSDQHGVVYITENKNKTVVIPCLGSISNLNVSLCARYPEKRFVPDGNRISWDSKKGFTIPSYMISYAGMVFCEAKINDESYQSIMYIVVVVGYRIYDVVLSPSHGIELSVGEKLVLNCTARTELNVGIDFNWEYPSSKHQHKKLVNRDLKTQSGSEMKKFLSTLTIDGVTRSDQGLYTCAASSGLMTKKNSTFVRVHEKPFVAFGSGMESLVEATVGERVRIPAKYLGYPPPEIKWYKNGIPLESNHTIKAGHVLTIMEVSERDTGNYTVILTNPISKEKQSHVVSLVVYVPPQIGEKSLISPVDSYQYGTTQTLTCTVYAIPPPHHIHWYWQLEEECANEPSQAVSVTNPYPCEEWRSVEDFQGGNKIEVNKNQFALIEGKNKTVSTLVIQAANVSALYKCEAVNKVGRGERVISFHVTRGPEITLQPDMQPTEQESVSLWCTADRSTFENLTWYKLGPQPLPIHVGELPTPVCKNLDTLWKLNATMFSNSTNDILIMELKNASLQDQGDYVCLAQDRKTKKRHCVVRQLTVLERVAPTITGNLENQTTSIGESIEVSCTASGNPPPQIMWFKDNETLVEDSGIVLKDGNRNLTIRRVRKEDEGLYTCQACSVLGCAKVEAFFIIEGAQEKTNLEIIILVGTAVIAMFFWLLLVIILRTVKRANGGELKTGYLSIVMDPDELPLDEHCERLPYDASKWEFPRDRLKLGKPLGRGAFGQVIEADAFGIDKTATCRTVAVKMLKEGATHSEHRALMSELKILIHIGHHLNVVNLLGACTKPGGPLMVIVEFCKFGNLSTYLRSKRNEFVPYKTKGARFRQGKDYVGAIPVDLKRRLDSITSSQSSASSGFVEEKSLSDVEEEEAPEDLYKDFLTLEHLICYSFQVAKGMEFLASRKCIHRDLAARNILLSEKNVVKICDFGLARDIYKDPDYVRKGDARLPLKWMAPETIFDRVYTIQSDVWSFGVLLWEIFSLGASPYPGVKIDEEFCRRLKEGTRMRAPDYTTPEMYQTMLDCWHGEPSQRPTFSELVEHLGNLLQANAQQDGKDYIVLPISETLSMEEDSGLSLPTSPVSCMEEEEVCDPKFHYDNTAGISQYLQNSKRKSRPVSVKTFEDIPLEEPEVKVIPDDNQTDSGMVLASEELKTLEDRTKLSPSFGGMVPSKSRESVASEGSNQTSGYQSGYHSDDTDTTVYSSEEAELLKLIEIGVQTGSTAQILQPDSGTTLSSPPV
Assay [5] has as its target T3, KDR (VEGFR-2). Description: Quantitative KDR binding assay (chimeric IgG and scFv). Also noted: the cDNA for KDR (VEGFR-2) extracellular domain is fused in-frame with the cDNA for human placental AP; made in house; host or cells: stably transfected NIH 3T3 cells, purified from supernatant on anti-AP antibody. Conditions: ELISA, FIG. 20. As for the experimental part:
Various amounts of antibodies were added to KDR (VEGFR-2)-coated 96-well Maxi-sorp microtiter plates (Nunc. Danmark) and incubated at room temperature for 1 h, after which the plates were washed 3 times with PBS containing 0.1% Tween-20. The plates were then incubated at RT for 1 h with 100 ul of mouse anti-E tag antibody-HRP conjugate (Pharmacia Biotech) for the scFv, or rabbit anti-human IgG Fc specific antibody-HRP conjugate (Cappel, Organon Teknika Corp.) for the chimeric IgG. The plates were washed 5 times, TMB peroxidase substrate (KPL, Gaithersburg, Md.) added, and the OD at 450 nm read using a microplate reader (Molecular Device, Sunnyvale, Calif.).
Target sequence in this assay (P35968 20-764 limits assumed): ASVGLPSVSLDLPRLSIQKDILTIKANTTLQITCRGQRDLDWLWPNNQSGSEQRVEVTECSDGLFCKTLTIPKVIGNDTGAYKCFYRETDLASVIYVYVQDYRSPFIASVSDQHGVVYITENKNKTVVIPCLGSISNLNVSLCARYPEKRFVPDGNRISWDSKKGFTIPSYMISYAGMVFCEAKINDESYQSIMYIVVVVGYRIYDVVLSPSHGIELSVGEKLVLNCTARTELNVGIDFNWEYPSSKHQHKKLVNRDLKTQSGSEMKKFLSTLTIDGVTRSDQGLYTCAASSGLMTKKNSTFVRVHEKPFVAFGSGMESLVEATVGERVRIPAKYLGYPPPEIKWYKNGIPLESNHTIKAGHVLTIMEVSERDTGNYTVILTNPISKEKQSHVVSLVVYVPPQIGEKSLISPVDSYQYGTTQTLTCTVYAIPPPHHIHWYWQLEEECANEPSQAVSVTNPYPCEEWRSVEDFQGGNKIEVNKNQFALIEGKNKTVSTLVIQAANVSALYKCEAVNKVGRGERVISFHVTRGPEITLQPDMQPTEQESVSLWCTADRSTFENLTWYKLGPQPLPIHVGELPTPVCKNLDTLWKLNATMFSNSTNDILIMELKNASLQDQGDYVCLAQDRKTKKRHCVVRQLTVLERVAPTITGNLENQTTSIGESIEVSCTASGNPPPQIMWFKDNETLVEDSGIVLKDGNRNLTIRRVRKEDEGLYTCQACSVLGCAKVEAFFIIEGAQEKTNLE
In general terms: ELISA stands for enzyme-linked immunosorbent assay.

For assay [6], the target named is T3, KDR (VEGFR-2). Nature of the assay: BIAcore analysis of p1C11 scFv, c-p1C11 and VEGF. The assay is classed as binding. Also noted: the cDNA for KDR (VEGFR-2) extracellular domain is fused in-frame with the cDNA for human placental AP; made in house; host or cells: stably transfected NIH 3T3 cells, purified from supernatant on anti-AP antibody. Conditions: BIAcore, Table 2. The protocol:
The binding kinetics of antibodies to KDR (VEGFR-2) were measured using BIAcore biosensor (Pharmacia Biosensor). […] Sensorgrams were obtained at each concentration and were evaluated using a program, BIA Evaluation 2.0, to determine the rate constants kon and koff. Kd was calculated as the ratio of rate constants koff/kon.
Target sequence in this assay (P35968 20-764 limits assumed): as above
(In SPR one partner is held on a chip, and binding of the other changes the refractive index at the surface.)

For assay [7], the system named is KDR (VEGFR-2), KDR (VEGFR-2)(1-3), KDR (VEGFR-2)(3). Description: Binding epitope mapping with KDR Ig-domain deletion variants. Also noted: species or system human. The protocol:
The production of KDR (VEGFR-2) extracellular Ig-like domain deletion variants has been previously described (Lu et al. (2000)). In an epitope-mapping assay, full length KDR (VEGFR-2)-AP, Ap fusions of two KDR (VEGFR-2) Ig-domain deletion variants, and Flk-1-AP were first immobilized onto a 96-well plate (Nunc) using a rabbit anti-AP antibody (DAKO-immunoglobulins, Glostrup, Denmark) as the capture reagent. The plate was then incubated with various anti-KDR (VEGFR-2) Fab proteins at RT for 1 h, followed by incubation with a rabbit anti-human Fab antibody-HRP conjugate. The plate was washed and developed as described above.

Assay [8] concerns the target T3, KDR (VEGFR-2). Nature of the assay: Direct binding assay of Fab to KDR. Also noted: the cDNA for KDR (VEGFR-2) extracellular domain is fused in-frame with the cDNA for human placental AP; made in house; host or cells: stably transfected NIH 3T3 cells, purified from supernatant on anti-AP antibody. As for the experimental part: In a direct binding assay, various amounts of soluble Fab proteins were added to KDR (VEGFR-2)-coated 96-well Maxi-sorp microtiter plates and incubated at RT for 1 h, after which the plates were washed 3 times with PBST. The plates were then incubated at RT for 1 h with 100 Φl of a rabbit anti-human Fab antibody-HRP conjugate (Jackson ImmunoResearch Laboratory Inc., West Grove, Pa.). The plates were washed and developed following the procedure described above for the phage ELISA. […] Absorbance at 405 nm was measured to quantify the bound KDR (VEGFR-2)-AP molecules (8).
Target sequence in this assay (P35968 20-764 limits assumed): as above

Assay [9] concerns the target T3, KDR (VEGFR-2). Description: BIAcore analysis of soluble Fab. Also noted: the cDNA for KDR (VEGFR-2) extracellular domain is fused in-frame with the cDNA for human placental AP; made in house; host or cells: stably transfected NIH 3T3 cells, purified from supernatant on anti-AP antibody. The format is binding. The note with it: mean±SE. As for the experimental part: The binding kinetics of soluble Fab proteins to KDR (VEGFR-2) were measured by surface plasmon resonance using a BIAcore biosensor (Pharmacia Biosensor). KDR (VEGFR-2)-AP fusion protein was immobilized onto a sensor chip and soluble Fab proteins were injected at concentrations ranging from 1.5 nM to 100 nM. Sensorgrams were obtained at each concentration and were evaluated using a program, BIA Evaluation 2.0, to determine the rate constants kon and koff Kd was calculated from the ratio of rate constants koff/kon.
Target sequence in this assay (P35968 20-764 limits assumed): as above

Sequence of KDR (VEGFR-2), KDR (VEGFR-2)(1-3), KDR (VEGFR-2)(3) (P35968 224-327 limits assumed): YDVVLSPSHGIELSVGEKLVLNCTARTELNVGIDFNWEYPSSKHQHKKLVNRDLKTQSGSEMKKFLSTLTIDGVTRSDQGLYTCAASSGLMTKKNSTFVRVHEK
T1 sequence (P35968 20-764 limits assumed): as the sequence (P35968 20-764 limits assumed) above
T2 sequence (P35968 20-764 limits assumed): as above

B1: c-p1C11: chimeric p1C11 IgG1: p1C11 variable domains with human κ and γ1 constant regions (antibody, V domains shown)
VH: QVKLQQSGAELVGSGASVKLSCTTSGFNIKDFYMHWVKQRPEQGLEWIGWIDPENGDSDYAPKFQGKATMTADSSSNTAYLQLSSLTSEDTAVYYCNAYYGDYEGYWGQGTTVTVSS
VL: DIELTQSPAIMSASPGEKVTITCSASSSVSYMHWFQQKPGTSPKLWIYSTSNLASGVPARFSGSGSGTSYSLTISRMEAEDAATYYCQQRSSYPFTFGSGTKLEIK
In the case of B1, the “binding to KDR expressed on early passage HUVEC” value in assay [1] is “binds specifically to KDR (VEGFR-2) expressed on early passage HUVEC”. For the same molecule, in assay [2], the “blocking of KDR binding to immobilized VEGF” value is “block KDR (VEGFR-2) receptor from binding to immobilized VEGF in a dose-dependent manner”. In addition, the “competition with 125I labeled VEGF for binding to immobilized KDR” value in assay [3] is on record as “efficiently compete”. Further, the “inhibition of FGF-stimulated activation of p44/p42 MAP kinases” value in the assay on p44/p42 MAP kinases (FGF 10 ng/ml, not shown) is on record as “does not inhibit”. For the same molecule, the “inhibition of VEGF-stimulated activation of p44/p42 MAP kinases” value in the assay on p44/p42 MAP kinases (VEGF165 20 ng/ml) was “effectively inhibits”. Besides, in the assay on HUVEC, the “inhibitory effect on VEGF-stimulated mitogenesis of HUVEC” value is listed as “effectively inhibit mitogenesis of HUVEC stimulated by VEGF”. In addition, in the assay with KDR (VEGFR-2) [4] (VEGF165 20 ng/ml), the “inhibition of VEGF-stimulated phosphorylation (activation) of KDR receptor” value was “effectively inhibits”. Moreover, the “effect of antibody alone on activity of KDR receptor and p44/p42 MAP kinases” value with KDR (VEGFR-2) [4] (without VEGF) is on record as “Neither c-p1C11, nor C225 alone has any effects”. For the same molecule, in the assay with KDR (VEGFR-2) [5], the “direct binding to immobilized KDR” value is listed as “binds more efficiently to immobilized KDR (VEGFR-2) than the parent scFv”. Further, the “direct binding to immobilized KDR” value in the assay with KDR (VEGFR-2) [5] (listed as C-p1C11) is reported as “bind more efficiently to immobilized KDR (VEGFR-2) receptor than the parent scFv”. In the assay with KDR (VEGFR-2) [6], the koff is given as 0.52 10^−4 s^−1 and the kon is listed as 0.63 10^5 M^−1s^−1.

B2: D2H2: human anti-KDR (VEGFR-2) VEGF-blocking Fab clone (antibody, V domains shown)
VH: EVQLVQSGGGLVKPGGSLRLSCAASGFTFSSYSMNWVRQAPGKGLEWVSSISSSSSYIYYADSVKGRFTISRDNAKDSLYLQMNSLRAEDTAVYYCARVTDAFDIWGQGTMVTVSS
VL: DIQLTQSPSSVSASVGDRVTITCRASQGISSRLAWYQQKPGKAPKLLIYAASSLQTGVPSRFSGSGSGTDFTLTISSLQPEDFATYYCQQANRFPPTFGPGTKVDIK
B2: the “location of binding epitope(s)” value in assay [7] is “broader binding epitope(s) within KDR (VEGFR-2) Ig domains 1 to 3”. For the same molecule, the “efficiency of binding to KDR” value with KDR (VEGFR-2) [8] is recorded as “more efficient binders”. Further, in the assay with KDR (VEGFR-2) [9], the koff is listed as 4.87 ± 0.18 10^−4 S^−1 and the kon is listed as 12.4 ± 2.9 10^4 M^−1S^−1.
